According to PMC9736959, “Enzyme-Linked Aptamer Kits for Rapid, Visual, and Sensitive Determination of Lactoferrin in Dairy Products”:

Biological target: lactoferrin (Lf) (bovine (from bovine milk), UniProt P24627 20-708)
Test: competition (indirect competitive enzyme-linked aptamer assay against immobilized cDNA S2); linear 25-500 nM Lf, LOD 14.01 nM (not a Kd); aptamer as SA-HRP conjugate; PBS pH 7.2, about 25 °C; Lf and recognition probe 5 min, then 30 min on cDNA-coated plate; PBS-T (0.05% Tween-20) washes
Details: protein: commercial; label: biotin; coupled to SA-HRP in the recognition probe; capture strand S2 is not an exact complement (fewer G opposite the C run)

lactoferrin (Lf), sequence (P24627 20-708): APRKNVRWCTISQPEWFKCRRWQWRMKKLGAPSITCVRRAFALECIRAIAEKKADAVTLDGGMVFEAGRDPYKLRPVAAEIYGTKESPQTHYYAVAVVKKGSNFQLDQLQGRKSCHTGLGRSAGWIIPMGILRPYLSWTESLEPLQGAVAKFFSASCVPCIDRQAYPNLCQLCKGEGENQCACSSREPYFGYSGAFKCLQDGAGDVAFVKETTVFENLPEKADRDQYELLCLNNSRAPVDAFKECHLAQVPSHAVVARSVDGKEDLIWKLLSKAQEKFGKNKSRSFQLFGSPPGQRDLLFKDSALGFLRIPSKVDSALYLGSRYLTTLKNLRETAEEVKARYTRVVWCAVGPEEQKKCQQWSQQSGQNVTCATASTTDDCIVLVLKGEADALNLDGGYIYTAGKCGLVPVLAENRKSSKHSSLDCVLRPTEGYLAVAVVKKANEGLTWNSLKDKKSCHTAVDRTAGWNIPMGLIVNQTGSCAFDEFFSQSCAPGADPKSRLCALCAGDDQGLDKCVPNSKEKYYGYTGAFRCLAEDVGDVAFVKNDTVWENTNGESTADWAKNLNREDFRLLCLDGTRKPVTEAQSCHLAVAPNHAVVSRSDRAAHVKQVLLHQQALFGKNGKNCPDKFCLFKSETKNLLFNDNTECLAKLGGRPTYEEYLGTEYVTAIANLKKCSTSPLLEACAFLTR

TGGTGCTGCCCCCCTAGTCTCCGGCTGCTTCTTGG (ssDNA, 5' biotin (so in the source)) [Lf aptamer (biotin-Apt)]: binds.
